Values quoted from earlier work in publication PMC7955094.

Tests used:
His37 = His37 (UniProt position 37, IIGILHLILWI); details: AM2 tetramer
His19 = His19 (UniProt position 19, ILSALHFMAWT); details: membrane-bound H27A BM2 tetramer

Row | Substance | pKa (His37) | pKa (His19)
1 | Influenza A virus M2 protein (AM2) proton channel (Influenza A virus (strain not stated)) | 5.9 | –
2 | Influenza B virus M2 protein (BM2) H27A mutant (Influenza B virus (strain of the quoted study not stated); H27A) | – | 5.6
